Patent US8916693B2, “Monoconjugated chitosans as delivery agents for small interfering nucleic acids” (Nektar Therapeutics, priority 2009, dated 2014)

Assay: PBS buffer hydrolysis of releasable monoPEGylated chitosan (HPLC, disappearance of starting material)
Format: physicochemical
Conditions: 25 mM PBS, pH 7.3; 2 mg in 1 mL
Method: PBS buffer hydrolysis of releasable monoPEGylated (20 KDa) chitosan (10 KDa): To a solution of 25 mM PBS, pH 7.3, (1 mL) was added the monoPEGylated (20 KDa) chitosan (10 KDa) (2 mg). The solution was filtered through a 0.2 μm filter and analyzed for the disappearance of the PEGylated chitosan starting material on an HPLC system with a flow rate of 0.5 mL/min, gradient (A: 0.1M TEAA, B: 80% ACN and 20% 0.1M TEAA) 15% B 0-4 min, 50% B 8 min, and 58.2% B. The column used was a Zorbax 300SB-C3 3.0×150 mm, […], column.

## Releasable monoPEGylated (20 KDa) Chitosan (10 KDa)
  calculated half-life (hydrolysis, disappearance of the PEGylated chitosan): 7.04 h
